Measurements reported in US20220057411A1 (PERSEUS SCIENCE GROUP, published 2022).

B1: PKC11 (1H1/1K1) rabbit anti-PKCg monoclonal antibody (antibody, V domains shown)
VH: QSVEESGGRLVTPGTPLALTCTVSGFSLNYYAMNWVRQAPVKGLEWIGVITSDTTYYASWAKGRFTISKTSTTVELQITSPTTEDTATYFCASGGSTTSPALWGQGTLVTVSS
VL: AQVLTQTPSPVSAAVGSTVTINCQASQSVWSKNYLSWFQQKPGQPPKQLIYSASTLASGVPSRFSGSGSGTQFTLTISDVQCDDAATYYCLGSYDCRSADCWTFGGGTEVVVK
notes: Rabbit IgG heavy chain and rabbit kappa light chain; also called mAb PKC11
B2: PKC13 (5H1/5K1) rabbit anti-PKCg monoclonal antibody (antibody, V domains shown)
VH: QEQLKESGGGLVTPGGTLTLTCTVSGFSLSSYAMSWVRQAPGKGLEWIGIIISGGSAYYATWAKGRFTISKTSTTVDLSITSPTTEDTATYFCARAKSGTYTGDYFTLWGQGTLVTVSS
VL: AFELTQTPASVEAAVGGTVTIKCQASESIGNALAWYQQKPGQPPKLLIYRASTLESGVPSRFKGSGSGTEFTLTISDLECADAATYYCQSYVGSRSTGYNVFGGGTEVVVK
notes: Rabbit IgG heavy chain and rabbit kappa light chain; Entries as printed seem to include a leader; no cleavage site is stated; also called mAb PKC13; PCK13
B3: PKC14 (7H1/7K3) rabbit anti-PKCg monoclonal antibody (antibody, V domains shown)
VH: QSLEESGGDLVQPGASLTLTCTASGFTLTTYWICWVRQAPGKGLEWVACILTGSGSTYYASWVNGRFTISKTSSTTVTLQMTSLTAADTATYFCARYGGDATYNENLWGQGTLVTVSS
VL: AQVLTQTPSSVSAAVGGTVTINCQASQSVYNNNRLSWYQQKPGQPPKRLIYGVSTLYYGVSSRFKGSGSGTQFTLTISGMQCDDAAIYYCLGGYDCASADCYAFGGGTEVVVK
notes: Rabbit IgG heavy chain and rabbit kappa light chain; Entries as printed seem to include a leader; no cleavage site is stated; also called mAb PKC14
B4: 4H1/4K1 rabbit anti-PKCg monoclonal antibody clone (antibody, V domains shown)
VH: QSVEESGGRLVTPGTPLTLTCTVSGFSLSLSRNAVSWVRQAPGKGLEWTGIIFGDAKTYYASWAKGRFTISKTATTVDLKITSLTTEDTATYFCVAGTGLWGQGTLVTVSS
VL: AQVLTQTASPVSAAVGSTVTINCQASQSVYNKNRLSWYQQKPGQPPKRLIYSSSTLDSGVPLRFSGSGSGTQFTLTISGVQCDDAATYYCLGSYDCSSADCNAFGGGTEVVVK
notes: Rabbit IgG heavy chain and kappa light chain; Entries as printed seem to include a leader; no cleavage site is stated
B5: 20H1/20K3 rabbit anti-PKCg monoclonal antibody clone (antibody, V domains shown)
VH: QSVEESGGRLVTPGTPLTLTCTVSGIDLSSNAMNWVRQAPGKGLEWIGIIGFSGSTNYASWAKGRFTISKTSTTVDLKITSPTTEDTATYFCARGGLNIGMNLWGQGTLVTVSS
VL: AQVLTQTPSPVSAAVGGTVPISCQSSQSVYDNNWLAWYQQKPGQPPKLLVYYASTLASGVPSRFKGSGSGTQFTLTINDLECDDAATYYCAGGYGDTNGGASSFGGGTEVVVK
notes: as for B4

Tests used:
[1] = target: PKCg 49-52 kDa proteolytic fragment (human); test: chemiluminescent capillary Western/ELISA on human plasma; 49-52 kDa band; normal plasma sample
Experimental: (§1) The Sensitivity was calculated using (=SUM individual disease samples)/total of all disease samples). False Positives were calculated using the (=SUM each individual healthy sample/total of all healthy samples). Specificity is defined as (1-False Positives). This statistical method maximizes sensitivity and identifies the probability of false positives. The cut-off point for each ROC curve between healthy and disease samples was calculated and then related to the total chemiluminescence signal that is represented by those probabilities. The cut-off for each sample cohort stained with PKC11, PKC13, and PKC14 antibodies are represented by a line in each graph below.
Briefly, to conduct the chemiluminescent capillary ELISA in this example, reagents and individual plasma from Normal vs. TBI clinical samples were loaded into an automated Western blot machine (using the Auto-Western service from RayBiotech Life, Inc). In the first step, sample is loaded into the capillary automatically. […] An electropherogram is produced which plots the baseline, molecular weight and quantitative chemiluminescence signal of each peak. The quantitative signal was derived for each molecular weight band in every electropherogram. Each quantitative chemiluminescence signal was generated using the following formula; (C2-C1/C1), where C2 equals Area Under the Curve and C1 equals the baseline for that sample. […]

[2] = target: PKCg 49-52 kDa proteolytic fragment (human); test: chemiluminescent capillary Western/ELISA on human plasma; 49-52 kDa band; signal at ROC cut-off
Experimental: as §1
(§2) Briefly, to conduct the chemiluminescent capillary ELISA in this example, reagents and individual plasma from Normal vs. TBI clinical samples were loaded into an automated Western blot machine (using the Auto-Western service from RayBiotech Life, Inc). In the first step, sample is loaded into the capillary automatically. Proteins are then separated by size as they electophoretically migrate through a stacking and separation matrix. The separated proteins are then immobilized on the capillary wall via a proprietary photoactivated capture chemistry. […] An electropherogram is produced which plots the baseline, molecular weight and quantitative chemiluminescence signal of each peak. The quantitative signal was derived for each molecular weight band in every electropherogram. Each quantitative chemiluminescence signal was generated using the following formula; (C2-C1/C1), where C2 equals Area Under the Curve and C1 equals the baseline for that sample. […] The resulting specific chemiluminescence signal was detected and quantitated, with sensitivity down in the picograms/ml range, providing a direct measure of TBI biomarkers, i.e., PKCg, and/or PKCg proteolytic fragments.

[3] = target: PKCg 49-52 kDa proteolytic fragment (human); test: chemiluminescent capillary Western/ELISA on human plasma; 49-52 kDa band; sample signal at ROC cut-off
Experimental: as §1, §2

[4] = target: T1, full-length human Protein Kinase C, gamma isoform (PKCg), 63-73 kDa (human, UniProt P05129 1-697); test: chemiluminescent capillary Western/ELISA on human plasma (stroke vs normal); signal at the ROC point
T1 construct: also called PKCγ; full-length PKCg (63-73 kDa)
Experimental: as §1
(§3) Briefly, to conduct the chemiluminescent capillary ELISA in this example, reagents and individual plasma from Normal vs. TBI clinical samples were loaded into an automated Western blot machine (using the Auto-Western service from RayBiotech Life, Inc). In the first step, sample is loaded into the capillary automatically. Proteins are then separated by size as they electophoretically migrate through a stacking and separation matrix. The separated proteins are then immobilized on the capillary wall via a proprietary photoactivated capture chemistry. Target proteins, i.e., PKCg and/or PKCg proteolytic fragments were identified using a primary antibody, e.g., the rabbit monoclonal antibodies described herein, and immunoprobed with an HRP-conjugated secondary goat anti-rabbit IgG antibody and chemiluminescent substrate. An electropherogram is produced which plots the baseline, molecular weight and quantitative chemiluminescence signal of each peak. The quantitative signal was derived for each molecular weight band in every electropherogram. Each quantitative chemiluminescence signal was generated using the following formula; (C2-C1/C1), where C2 equals Area Under the Curve and C1 equals the baseline for that sample. This specific chemiluminescence measure was used in comparisons of all normal human plasma compared to TBI or stroke plasma samples after staining with antibodies, i.e., PKC11, PKC13, or PKC14. Statistical comparisons were made using GraphPad Prism 8 software. The resulting specific chemiluminescence signal was detected and quantitated, with sensitivity down in the picograms/ml range, providing a direct measure of TBI biomarkers, i.e., PKCg, and/or PKCg proteolytic fragments.

[5] = target: T2, PKCg 33-36 kDa proteolytic fragment (human); test: as above
T2 construct: also called 32-36 kDa fragment
Experimental: as §1, §3

[6] = target: PKCg 42-48 kDa proteolytic fragment (human); test: as above
Experimental: as §1, §3

[7] = target: PKCg 53-60 kDa proteolytic fragment (human); test: as above
Experimental: as §1, §3

[8] = target: higher molecular weight band at 95-105 kDa (human); test: as above
Experimental: as §1, §3

[9] = target: T1, full-length human Protein Kinase C, …; test: conclusion; clones came from ELISA/MAPIA screening against PKCg

Binder	chemiluminescence signal (normal plasma sample, false positive) [1] [chemiluminescence units]	chemiluminescence signal (ROC cut-off, stroke) [2] [chemiluminescence units]	chemiluminescence signal (ROC cut-off, TBI) [3] [chemiluminescence units]	Signal Chemiluminescence [4] [chemiluminescence units]	Signal Chemiluminescence [5] [chemiluminescence units]	Signal Chemiluminescence [6] [chemiluminescence units]	Signal Chemiluminescence [7] [chemiluminescence units]	Signal Chemiluminescence [8] [chemiluminescence units]	binding result [9]
B1	630	797	710	1770	126	637	1540	–	–
B2	–	999	658	–	319	2210	3350	–	–
B3	–	257	299	866	230	633	654	443	–
B4	–	–	–	–	–	–	–	–	binds
B5	–	–	–	–	–	–	–	–	binds
